EC50 data for 6 molecules are collected here from patent US20170182124A1, “FGF21 Derivatives and Uses Thereof” (Novo Nordisk A/S, priority 2014, published 2017).

The target in the assay is FGF receptor/BKL complex. The assay can be described thus: FGF receptor potency in an Erk phosphorylation assay in HEK293 overexpressing human BKL. It counts as cell-based. Particulars: HEK293/BKL cells, pERK after 12 minutes. The procedure: In order to test the binding of the FGF21 derivatives to albumin, the assay was performed in the absence of serum albumin as well as in the presence of human serum albumin (HSA) (0.1% final assay concentration). An increase in EC50 value (decrease in potency) in the presence of serum albumin for FGF21 derivatives would indicate binding to serum albumin and represents a method to predict a protracted pharmacokinetic profile of the test substance in animal models. MetFGF21 (SEQ ID NO:2) is included for reference.
HEK293 cells endogenously express several FGF receptors, including FGFR1c, FGFR3c and FGFR4. These cells are unresponsive to FGF21 until transfected with the co-receptor beta-klotho (BKL). Activation of the FGF receptor/BKL complex leads to activation of the MAPK/ERK signalling pathway and phosphorylation of ERK. The level of phosphorylated ERK (pERK) at a given time point increases with increasing concentrations of FGF21. As described below the level of pERK is measured after 12 minutes of stimulation with a range of FGF21 analogue concentrations.
The HEK293/beta-klotho cells are seeded with 30.000 cells/well in 96 well plates in DMEM (BioWhittaker #BE12-604F/U1), supplemented with 10% FCS (Gibco #16140-071), 1% penicillin/streptomycin (Gibco #15140), 100 µg/ml Hygromycin B, (Calbiochem, # 400052). Two days later and 2 hours before addition of compound the cell medium is exchanged with 100 ∞l basal medium (DMEM (BioWhittaker #BE12-604F/U1)). The FGF21 analogues are diluted in assay medium (DMEM (BioWhittaker #BE12-604F/U1) supplemented with 0.02% Tween20), warmed to 37° C., added to the cells (100 μl) and incubated at 37° C. for 12 minutes. The FGF21 derivatives were also tested in the presence of 0.1% HSA (Sigma—A1887). All medium is quickly removed and 50 μl lysis buffer is added pr. well. The plate is shaken for 5 minutes and the lysate is ready for measurement of pERK. pERK is measured in 384 well plates with the AlphaScreen SureFire kit (PerkinElmer #TGRES10K). This kit is based on ERK and pERK specific antibodies coupled to donor and acceptor beads. The presence of pERK will bring acceptor and donor beads in close proximity and a signal is generated that is read on EnVision. The data are analysed using GraphPad Prism and the potency of the FGF21 proteins is described as absolute EC50 value.

[1] abbreviates: presence of 0.1% HSA, read-out: EC50 (0.1% HSA).

Substitutions are numbered along the chain they refer to. Like-named read-outs stand apart in the source and are kept apart here.

Sequence of FGF receptor/BKL complex (Q86Z14 whole entry, one chain of several): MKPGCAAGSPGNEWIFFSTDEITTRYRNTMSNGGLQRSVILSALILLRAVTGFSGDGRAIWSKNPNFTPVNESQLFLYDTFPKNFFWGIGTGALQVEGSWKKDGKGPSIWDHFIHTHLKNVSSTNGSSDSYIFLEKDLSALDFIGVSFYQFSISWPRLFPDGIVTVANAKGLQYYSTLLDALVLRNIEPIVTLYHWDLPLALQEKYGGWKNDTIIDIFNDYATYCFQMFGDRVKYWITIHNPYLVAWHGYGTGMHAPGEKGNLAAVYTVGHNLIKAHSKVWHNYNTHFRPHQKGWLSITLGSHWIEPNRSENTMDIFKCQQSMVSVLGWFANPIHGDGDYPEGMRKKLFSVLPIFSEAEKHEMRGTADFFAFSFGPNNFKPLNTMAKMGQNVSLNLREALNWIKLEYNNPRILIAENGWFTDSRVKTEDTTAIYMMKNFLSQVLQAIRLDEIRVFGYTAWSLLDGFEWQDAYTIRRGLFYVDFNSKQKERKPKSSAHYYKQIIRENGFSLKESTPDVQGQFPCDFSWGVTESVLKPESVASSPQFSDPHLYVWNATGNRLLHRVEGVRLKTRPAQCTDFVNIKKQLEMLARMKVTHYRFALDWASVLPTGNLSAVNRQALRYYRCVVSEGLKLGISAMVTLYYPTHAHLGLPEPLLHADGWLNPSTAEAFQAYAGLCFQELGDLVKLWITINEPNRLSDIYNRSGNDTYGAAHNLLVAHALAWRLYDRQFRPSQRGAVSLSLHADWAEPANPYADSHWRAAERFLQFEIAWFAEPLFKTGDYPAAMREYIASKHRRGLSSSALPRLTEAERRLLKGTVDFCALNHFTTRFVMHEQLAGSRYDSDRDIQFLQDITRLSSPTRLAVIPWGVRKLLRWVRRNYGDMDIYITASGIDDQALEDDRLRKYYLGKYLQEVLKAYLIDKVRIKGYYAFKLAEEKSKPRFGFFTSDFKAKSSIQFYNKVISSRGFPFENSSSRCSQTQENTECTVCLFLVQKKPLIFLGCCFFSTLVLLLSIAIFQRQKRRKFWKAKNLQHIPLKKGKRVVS

B1: 20-[[4-[[(1S)-4-[2-[2-[2-[2-[2-[2-[[(1S)-5-[(2-acetamido]-1-carboxy-pentyl]amino]-2-oxo-ethoxy]ethoxy]ethylamino]-2-oxo-ethoxy]ethoxy]ethylamino]-1-carboxy-4-oxo-butyl]carbamoyl]cyclohexyl]methylamino … (protein)
chain: HPIPDSSPLLQFGGQVRQRYLYTDDAQQTEAHLEIREDGTVGGAADQSPESLLQLKALKPGVIQILGVKTSRFLCQRPDGALYGSLHFDPEACSFRELLLEDGYNVYQSEAHGLPLHLPGQKSPHRDPAPRGPARFLPLPGLPPALPEPPGILAPQPPDVGSSDPLSLVGPSQGRSPSYCS
B1: the concentration for a half-maximal effect (EC50) (usually the concentration at which the effect is half-maximal) (absence of HSA, read-out: EC50) is 4 nM.

B2: 4-[10-[[(1S)-4-[2-[2-[2-[2-[2-[2-[[(1S)-5-acetamido-1-carboxy-pentyl]amino]-2-oxo-ethoxy]ethoxy]ethylamino]-2-oxo-ethoxy]ethoxy]ethylamino]-1-carboxy-4-oxo-butyl]amino]-10-oxo-decoxy]benzoic … (protein)
chain: B1 chain with C180A, S181C
On to B2, for which the EC50 is, setting by setting: (absence of HSA, read-out: EC50) 26.4 nM; under setting [1], 138 nM.

B3: 16-[[4-[[(1S)-4-[2-[2-[2-[2-[2-[2-(2-acetamidoethylamino)-2-oxo-ethoxy]ethoxy]ethylamino]-2-oxo-ethoxy]ethoxy]ethylamino]-1-carboxy-4-oxo-butyl]carbamoyl]cyclohexyl]methylamino]-16-oxo-hexadecanoic … (protein)
chain: B1 chain
Consider B3, for which the EC50 is 3.5 nM (absence of HSA, read-out: EC50) and 3.2 nM under setting [1].

B4: 12-[[4-[[(1S)-4-[2-[2-[2-[2-[2-[2-(2-acetamidoethylamino)-2-oxo-ethoxy]ethoxy]ethylamino]-2-oxo-ethoxy]ethoxy]ethylamino]-1-carboxy-4-oxo-butyl]carbamoyl]cyclohexyl]methylamino]-12-oxo-dodecanoic … (protein)
chain: B1 chain
For the molecule B4, the EC50 (absence of HSA, read-out: EC50) amounted to 4 nM and the 50% effective concentration (EC50) under setting [1] is 4.7 nM.

B5: 16-[[4-[[(1S)-4-[2-[2-[2-[2-[2-[2-[[(1S)-5-[(2-acetamido]-1-carboxy-pentyl]amino]-2-oxo-ethoxy]ethoxy]ethylamino]-2-oxo-ethoxy]ethoxy]ethylamino]-1-carboxy-4-oxo-butyl]carbamoyl]cyclohexyl]methylamino … (protein)
chain: B1 chain
For the molecule B5, the half-maximal effective concentration (EC50) is, setting by setting: (absence of HSA, read-out: EC50) 4 nM; under setting [1], 2.1 nM.

B6: 18-[[4-[[(1S)-4-[2-[2-[2-[2-[2-[2-[[(1S)-5-[(2-acetamido]-1-carboxy-pentyl]amino]-2-oxo-ethoxy]ethoxy]ethylamino]-2-oxo-ethoxy]ethoxy]ethylamino]-1-carboxy-4-oxo-butyl]carbamoyl]cyclohexyl]methylamino … (protein)
chain: B1 chain
For B6, the EC50 by setting is: (absence of HSA, read-out: EC50) 4 nM; under setting [1], 14 nM.
